Assay results taken from PMC9972587, “SIRT2-PFKP interaction dysregulates phagocytosis in macrophages with acute ethanol-exposure” (Frontiers in Immunology, 2022).

Biological target: T1, Human recombinant PFKP protein (His and GST tag) (human, UniProt Q01813 1-784)
T1 construct: Phosphofructokinase, platelet isoform (PFKP), human, recombinant; also called human PFKP protein; source: bought: Sino Biological (CAT# 15003-H20B)
T1 sequence (looked up): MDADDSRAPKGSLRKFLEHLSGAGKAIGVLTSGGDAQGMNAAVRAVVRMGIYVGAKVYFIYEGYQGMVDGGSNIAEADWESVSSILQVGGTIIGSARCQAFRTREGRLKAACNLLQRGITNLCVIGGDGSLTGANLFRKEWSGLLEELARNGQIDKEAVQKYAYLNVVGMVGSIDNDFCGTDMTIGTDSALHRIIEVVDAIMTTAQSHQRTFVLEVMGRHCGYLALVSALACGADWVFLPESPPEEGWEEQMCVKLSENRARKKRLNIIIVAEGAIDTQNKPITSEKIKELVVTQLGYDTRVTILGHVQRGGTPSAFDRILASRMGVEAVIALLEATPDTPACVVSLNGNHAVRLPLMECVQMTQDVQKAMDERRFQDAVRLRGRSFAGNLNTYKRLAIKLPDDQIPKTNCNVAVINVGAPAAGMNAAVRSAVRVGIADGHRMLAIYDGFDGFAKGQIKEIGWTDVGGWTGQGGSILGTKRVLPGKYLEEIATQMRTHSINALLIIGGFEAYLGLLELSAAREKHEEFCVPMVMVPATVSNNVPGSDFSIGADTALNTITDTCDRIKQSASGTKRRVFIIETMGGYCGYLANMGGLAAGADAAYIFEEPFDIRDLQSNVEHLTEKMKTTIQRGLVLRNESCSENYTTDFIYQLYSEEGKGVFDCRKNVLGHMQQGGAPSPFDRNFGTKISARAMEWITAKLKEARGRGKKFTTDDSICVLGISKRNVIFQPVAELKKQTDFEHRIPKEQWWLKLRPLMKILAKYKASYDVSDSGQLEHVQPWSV
Assay: SPR; Biacore S200; human SIRT2 immobilised on CM5 chip by amine coupling (10 mM sodium acetate pH 4.0 with 20 uM NAD+); PFKP injected at 15.62-1000 nM, contact time 120 s, 15 uL/minute; running buffer HBS-P+ pH 7.4; steady state equilibrium binding model
Settings: both partners purified

Kd: 100 nM
B1: Recombinant human SIRT2 protein (enzyme, UniProt Q8IXJ6 1-389, looked up)
chain: MAEPDPSHPLETQAGKVQEAQDSDSDSEGGAAGGEADMDFLRNLFSQTLSLGSQKERLLDELTLEGVARYMQSERCRRVICLVGAGISTSAGIPDFRSPSTGLYDNLEKYHLPYPEAIFEISYFKKHPEPFFALAKELYPGQFKPTICHYFMRLLKDKGLLLRCYTQNIDTLERIAGLEQEDLVEAHGTFYTSHCVSASCRHEYPLSWMKEKIFSEVTPKCEDCQSLVKPDIVFFGESLPARFFSCMQSDFLKVDLLLVMGTSLQVQPFASLISKAPLSTPRLLINKEKAGQSDPFLGMIMGLGGGMDFDSKKAYRDVAWLGECDQGCLALAELLGWKKELEDLVRREHASIDAQSGAGVPNPSTSASPKKSPPPAKDEARTTEREKPQ
notes: Sirtuin 2 (SIRT2), human, recombinant; also called human SIRT2 ligand; source: bought: Sigma-Aldrich (CAT# SRP0116)
